The source of these data is patent US8937153B2, “Compositions, methods and uses” (Affibody AB, priority 2007, dated 2015).

A short description of data set [1]: Solubility in aqueous solvents (general statement). The class given is physicochemical. From the text:
For example, 30% organic solvent is needed to keep the conjugate in solution.

The target of data set [2] is T1, HSA (human serum albumin) (Homo sapiens, UniProt P02768). Briefly: Biosensor (Biacore) analysis of ABD variants' binding to human serum albumin (Example 2). Particulars: N-terminal His6-tagged proteins injected at 25 nM; HSA immobilized 360 RU; qualitative measure of relative affinities. As to the method: (§1) ABDwt and the twelve ABD variants, all sub-cloned in pAY442 as described above, were expressed in E. coli BL21(DE3) as fusions to an N-terminal His6-tag and purified by IMAC. A colony of each ABD variant was used to inoculate 5 ml TSB medium supplemented with 50 μg/ml kanamycin. The cultures were grown over night at 37° C. The following day, 50 μl of each culture were inoculated separately to 100 ml TSB+YE medium supplemented with 50 μg/ml kanamycin in a 1 liter flask. The cultures were grown at 100 rpm at 37° C. to an OD600 of 0.7-1, after which IPTG was added to a final concentration of 0.5 mM and cells were incubated at room temperature over night at 100 rpm. Cultures were harvested by centrifugation at 8000 g for 5 minutes and pellets were stored in a freezer until protein preparation.
(§2) The His6-tagged proteins were IMAC purified under denatured conditions using Ni-NTA Superflow columns and QIAsoft 4.1, protein/Ni-NTA Superflow 96 denaturing large scale 2 Vac4-24 samples, on a Biorobot 3000 (Qiagen). The buffer was exchanged to PBS using a dialysis cassette (Slide-A-Lyser, 3.5 kDa; Pierce cat. no. 66330) by dialyzing against 5 l PBS for 2 h followed by an additional dialysis over night. […]

The target in data set [3] is T1, HSA (human serum albumin). Briefly: Biosensor analysis for binding kinetics to human serum albumin (Example 3). Particulars: His6-tagged; HSA immobilized 450 RU; values estimated. The procedure:
ABD00003, ABD00053, ABD00239 and ABDwt were expressed in E. coli BL21(DE3) cells as fusions to an N-terminal His6-tag using constructs as described in Example 2, and purified by IMAC. A colony of each ABD variant was used to inoculate 10 ml TSB medium supplemented with 50 μg/ml kanamycin. The cultures were grown over night at 37° C. The following day, 500 μl of each culture were inoculated separately to 500 ml TSB+YE medium supplemented with 50 μg/ml kanamycin in a 5 liter flask. The cultures were grown at 100 rpm and 37° C. to an OD600 of 0.7-1, which was followed by addition of IPTG to a final concentration of 0.5 mM and incubated at room temperature over night. Cultures were harvested by centrifugation at 8000 g for 5 minutes and pellets were stored at −20° C. until protein preparation.
The His6-tagged proteins were IMAC purified under denaturing conditions using His-Gravitrap™ kit (GE Healthcare). The pellets were re-suspended (vortexed) in 20 ml of the denaturation buffer B-7M (100 mM NaH2PO4, 10 mM Tris-Cl, 7 M urea, pH 8) and 8 μl benzonase was added.
Biosensor analysis on a Biacore2000 instrument (Biacore) was performed with HSA (SIGMA, cat. no. A3782-5G) immobilized by amine coupling onto the carboxylated dextran layer on surfaces of a CM-5 chip (research grade; Biacore), according to the manufacturer's recommendations. […] One cell surface on the chip was activated and deactivated and used as reference cell during injections. The purified His6-ABD samples were diluted in HBS-EP (Biacore) to 4, 10, 40, 100 and 400 nM for ABDwt and to 0.2, 0.8, 2, 5 and 20 nM for the selected ABD variants. The samples were injected at a constant flow-rate of 25 μl/min for 10 min, followed by injection of HBS-EP for 3 hours. The surfaces were regenerated with two injections of 20 μl of 5 and 10 mM HCl.

In data set [4] the target is MSA (mouse serum albumin) (Mus musculus, UniProt P07724). Kind of data set: Biosensor (Biacore) analysis of ABD variants' binding to mouse serum albumin. To be noted: N-terminal His6-tagged proteins injected at 25 nM; MSA immobilized 350 RU; qualitative measure of relative affinities. The procedure: as §1, §2
For orientation: In SPR one partner is held on a chip, and binding of the other changes the refractive index at the surface.

MSA (mouse serum albumin), sequence (P07724 25-608): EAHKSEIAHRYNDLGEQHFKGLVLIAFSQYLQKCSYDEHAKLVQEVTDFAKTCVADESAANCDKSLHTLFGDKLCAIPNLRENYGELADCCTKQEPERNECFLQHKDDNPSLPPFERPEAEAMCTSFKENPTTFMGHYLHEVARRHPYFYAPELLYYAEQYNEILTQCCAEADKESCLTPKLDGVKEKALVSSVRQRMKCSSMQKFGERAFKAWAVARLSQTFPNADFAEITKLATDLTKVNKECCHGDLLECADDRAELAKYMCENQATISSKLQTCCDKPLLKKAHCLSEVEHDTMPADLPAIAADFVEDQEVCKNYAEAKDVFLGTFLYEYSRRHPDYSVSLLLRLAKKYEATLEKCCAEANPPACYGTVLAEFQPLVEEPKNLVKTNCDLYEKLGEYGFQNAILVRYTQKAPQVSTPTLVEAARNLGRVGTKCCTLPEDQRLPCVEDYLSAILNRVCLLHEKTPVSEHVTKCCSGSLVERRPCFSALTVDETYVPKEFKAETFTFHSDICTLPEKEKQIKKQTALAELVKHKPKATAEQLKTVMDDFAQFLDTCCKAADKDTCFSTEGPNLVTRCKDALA

Consider `COc1cccc2c1C(=O)c1c(O)c3c(c(O)c1C2=O)C[C@@](O)(C(=O)CO)CC3O[C@H]1CC(NC(=O)OCc2ccc(NC(=O)OCc3ccc(NC(=O)[C@H](CCCNC(N)=O)NC(=O)[C@@H](NC(=O)CCCCCN4C(=O)C=CC4=O)C(C)C)cc3)cc2)C(O)[C@@H](C)O1` (stereo partly drawn) [free linker, Maleimide-Spacelinker-Doxorubicin], for which the “solubility in aqueous solvents” value in data set [1] is reported as “low solubility”.
Take ABDwt: the Kd in data set [2] is 1.5 nM; in data set [3], 1.2 nM; in data set [4], 4.9 nM. Besides, the “ka to HSA” value in data set [3] is 550000 M/s. Further, in data set [3], the “kd to HSA” value is 0.00065 s⁻¹.

Usually Kd stands for the equilibrium constant for the complex coming apart.
